The values below come from patent publication EP4817631A2 (AbbVie Deutschland GmbH & Co. KG, dated 2026).

Substitutions are numbered along the chain they refer to.

The chains are these.
T1: hRGMa-His (human, UniProt Q96B86 48-422, limits assumed)
T1 construct: not shown: His tag
T1 sequence: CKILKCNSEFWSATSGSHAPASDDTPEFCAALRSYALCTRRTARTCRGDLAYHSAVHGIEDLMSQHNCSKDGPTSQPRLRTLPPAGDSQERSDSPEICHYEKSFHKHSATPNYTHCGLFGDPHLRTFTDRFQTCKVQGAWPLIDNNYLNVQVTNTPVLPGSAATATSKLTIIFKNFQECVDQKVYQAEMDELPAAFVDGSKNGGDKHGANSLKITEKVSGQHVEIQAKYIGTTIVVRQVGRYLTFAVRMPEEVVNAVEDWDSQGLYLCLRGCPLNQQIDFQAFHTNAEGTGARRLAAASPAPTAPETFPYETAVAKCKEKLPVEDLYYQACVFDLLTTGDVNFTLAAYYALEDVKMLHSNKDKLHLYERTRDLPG

T2: R &D hRGMc-His (human, UniProt Q6ZVN8 36-400)
T2 construct: Bought (R&D) His-tagged human RGMc; also called human RGMc; not shown: His tag
T2 sequence: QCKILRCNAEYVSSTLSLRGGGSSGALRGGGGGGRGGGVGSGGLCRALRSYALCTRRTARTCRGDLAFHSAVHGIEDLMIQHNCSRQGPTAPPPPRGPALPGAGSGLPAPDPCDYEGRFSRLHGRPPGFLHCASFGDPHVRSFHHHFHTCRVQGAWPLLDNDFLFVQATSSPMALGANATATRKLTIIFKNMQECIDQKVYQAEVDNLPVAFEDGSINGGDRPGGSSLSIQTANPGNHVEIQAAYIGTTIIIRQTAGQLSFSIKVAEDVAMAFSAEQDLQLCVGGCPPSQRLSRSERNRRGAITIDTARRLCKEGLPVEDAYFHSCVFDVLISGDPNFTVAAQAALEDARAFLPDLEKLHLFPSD

T3: hRGMc expressed in 293HEK cells (human, UniProt Q6ZVN8 36-400)
T3 sequence: T2 sequence

B1: h5F9.AM4 (antibody, V domains shown)
VH: EVQLVESGGGLVQPGGSLRLSCAASGFTFSNYGMNWIRQAPGKGLEWIGMIYYDSSEKHYADSVKGRFTISRDNSKNTLYLQMNSLRAEDTAVYYCAKGTTPDYWGQGTMVTVSS
VL: DVVLTQSPLSLPVTLGQPASISCRSSQSLESSDGDTFLEWFQQRPGQSPRLLIYDVSTRFSGVPDRFSGSGSGTDFTLKISRVEAEDVGVYYCFQVTHDPVTFGQGTKLEIK
notes: also called RGMA-h5F9AM.4; RGMA-h5F9Vh7a/pJP29 1 hIgG1/K mut
B2: h5F9.AM8 (antibody, V domains shown)
VH: B1 VH
VL: B1 VL with S31E, D35Y, E39H, D55E, V96A, V101L
notes: also called RGMA-h5F9AM.8; RGMA-h5F9pJP297/pJP 298 hIgG1/K mut
B3: h5F9.AM9 (antibody, V domains shown)
VH: B1 VH with L11V, G16R, I37V, I48V, G49A, K98R
VL: B1 VL with E30A, S31D, E39H, D55A, T58H, V96A
notes: also called RGMA-h5F9AM.9; RGMA-h5F9pJP297/pJP 299 hIgG1/K mut
B4: h5F9.AM11 (antibody, V domains shown)
VH: B1 VH with I37V, I48V, G49S
VL: B1 VL with S31D, D35G, T58S, V96A, V101L, T102S
notes: also called RGMA-h5F9AM; 11; RGMA-h5F9pJP302/pJP 303 hIgG1/K mut
B5: humanized antibody 5F9.23 (antibody, V domains shown)
VH: B1 VH
VL: DVVLTQSPLSLPVTLGQPASISCRSSQSLEYSDGYTFLEWFQQRPGQSPRLLIYEVSNRFSGVPDRFSGSGSGTDFTLKISRVEAEDVGVYYCFQATHDPLTFGQGTKLEIKR
notes: Humanized parental antibody; also called h5F9.23; H5F9.23*

One assay has as its target T1, hRGMa-His. The assay is described as follows: BIAcore; Ab captured on CM5 chip via anti-hIgG Fc Ab, antigen injected; 1:1 Langmuir fit.
With B1, the affinity, expressed as Kd, was 15 pM; the koff was determined as 2.2e-05 s⁻¹; the kon worked out at 1.4e+06 M⁻¹ s⁻¹.

For the molecule B2, the Kd was 31 pM, the koff was 2.7e-05 s⁻¹ and the kon came to 870000 M⁻¹ s⁻¹.

Consider B3, for which the Kd is 470 pM, the dissociation rate constant (koff) was 0.0004 s⁻¹ and the kon is 860000 M⁻¹ s⁻¹.

B4 returned a Kd of 110 pM, a koff of 9.9e-05 s⁻¹ and a kon of 930000 M⁻¹ s⁻¹.

In a further assay the target is T2, R &D hRGMc-His. Described as above.
For the molecule B1, the Kd came out at 130 pM, the koff is 0.00104 s⁻¹ and the kon was determined as 7.85e+06 M⁻¹ s⁻¹.

In the case of B5, binding was characterised by a dissociation constant (Kd) of 29000 pM and the kon was found to be 830000 M⁻¹ s⁻¹.

For B2, the Kd was 105 pM, the koff was 0.00039 s⁻¹ and the kon came out at 3.95e+06 M⁻¹ s⁻¹.

As to B3, the Kd was determined as 710 pM, the koff stood at 0.0107 s⁻¹ and the kon was determined as 1.55e+07 M⁻¹ s⁻¹.

Take B4: the affinity, expressed as Kd, was 285 pM; the koff stood at 0.0014 s⁻¹; the kon was 5.05e+06 M⁻¹ s⁻¹.

A further assay deals with T3, hRGMc expressed in 293HEK cells. Put plainly: cell-based or functional assay.
Consider B5, for which the “IC50, RGMc-mediated BMP reporter (BRE-luc) assay” value came to 17000 pM.

For the next assay, the target named is Rat RGMa-His (rat) (UniProt D4A188). Put plainly: affinity KD as listed in Table 4 (equals BIAcore value of Table 5). For orientation: In SPR one partner is held on a chip, and binding of the other changes the refractive index at the surface.
For the molecule B1, the Kd is below 0.94 pM.

Turning to B2, the Kd was below 1.5 pM.

The molecule B3 had a Kd of 310 pM.

The molecule B4 showed a Kd of 74 pM.

The target in the next assay is T2, R &D hRGMc-His. The assay is described as follows: affinity KD as listed in Table 4; method not given.
Consider B1, for which the affinity, expressed as Kd, was 120 pM.

For the molecule B2, the dissociation constant (Kd) turned out to be 80 pM.

Molecule B3 returned a Kd of 690 pM.

In turn, B4 displayed a Kd of 250 pM.

A further assay has as its target Rat RGMa-His (rat) (UniProt D4A188). The assay is described as follows: BIAcore; Ab captured on CM5 chip via anti-hIgG Fc Ab, antigen injected; 1:1 Langmuir fit.
B1: the Kd was below 0.94 pM, the koff was below 1e-06 s⁻¹ and the kon came out at 1.1e+06 M⁻¹ s⁻¹.

Take B5: the Kd was determined as 2100 pM, the koff is 0.0017 s⁻¹ and the kon turned out to be 830000 M⁻¹ s⁻¹.

Molecule B2 registered a Kd below 1.5 pM, a koff below 1e-06 s⁻¹ and a kon of 660000 M⁻¹ s⁻¹.

B3: the Kd is 310 pM, the koff came out at 0.00021 s⁻¹ and the kon came to 680000 M⁻¹ s⁻¹.

B4: the Kd amounted to 74 pM, the koff came to 5.2e-05 s⁻¹ and the kon was 700000 M⁻¹ s⁻¹.

The target in the next assay is T1, hRGMa-His. The assay is described as follows: affinity KD as listed in Table 4 (equals BIAcore value of Table 5).
As for B1, the Kd is 15 pM.

In turn, B2 registered a Kd of 31 pM.

The molecule B3 had a Kd of 470 pM.

B4: the affinity, expressed as Kd, was 110 pM.

What is called Kd is a measure of binding affinity in units of concentration. By koff is commonly meant the rate constant with which the complex falls apart. For orientation: kon means the rate constant with which the complex forms. A higher kon goes with fast association.
